The values that follow come from patent publication US20240117030A1 (Pfizer, published 2024).

Experiment in all cases: cell-based or functional assay
The target in experiment [1] is recombinant human TSLP (glycosylated long form) (human, UniProt Q969D9 29-159).
For experiment [2], the target named is T1, human IL-4 (human, UniProt P05112 25-153).
T1 sequence (looked up): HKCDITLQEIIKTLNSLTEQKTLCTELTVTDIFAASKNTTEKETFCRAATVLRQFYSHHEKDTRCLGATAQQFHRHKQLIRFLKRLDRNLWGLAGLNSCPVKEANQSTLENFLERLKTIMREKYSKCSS

Experiment [3] deals with human TSLP (long form) (human, UniProt Q969D9 29-159, Biotinylated on the Avi tag in some assays; glycosylated (Expi293F expression)).
The target in experiment [4] is human IL-13 (human, UniProt P35225 35-146).
In experiment [5] the target is T2, human IL-4 (human, UniProt P05112 25-153).
T2 sequence (looked up): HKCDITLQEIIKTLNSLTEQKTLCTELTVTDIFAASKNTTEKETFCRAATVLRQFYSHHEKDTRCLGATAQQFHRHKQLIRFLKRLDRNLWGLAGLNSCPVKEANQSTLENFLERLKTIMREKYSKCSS
This is another data set of the same source.

The target in experiment [6] is human IL-13 (human, UniProt P35225 35-146). This is another data set of the same source.

B1: TSLP-0156 (antibody, human IgG1, lambda, V domains shown)
VH: QMQLVESGGGVVQPGRSLRLSCAASGFTFRTYGMHWVRQAPGKGLEWVAVIWYDGSNKHYADSVKGRFTISRDNSKNTLYLQMNSLRAEDTAVYYCARAPQWYLVHEAFDIWGQGTMVTVSS
VL: SYVLTQPPSVSVAPGQTARITCGGNNLGSKSVHWYQQKPGQAPVLVVYDDSDRPSWIPERFSGSNSGNTATLTISRGEAGDEADYYCQVWDSSSDHVVFGGGTKLTVLG
For the molecule B1, the “TARC bioassay (IC50, pM)” value in experiment [1] was 4.25 pM.

B2: IL413TSLP-1028 (trispecific antibody)
heavy: not shown
chain 1: DIQMTQSPSSLSASVGDRVTITCKASESVDHFGWSLVHWYQQKPGKAPKLLIYRASNLESGVPSRFSGSGSGTDFTLTISSLQPEDFATYYCQQSNEDPWTFGGGTKVEIKRTVAAPSVFIFPPSDEQLKSGTASVVCLLNNFYPREAKVQWKVDNALQSGNSQESVTEQDSKDSTYSLSSTLTLSKADYEKHKVYACEVTHQGLSSPVTKSFNRGECGGGGSEVTLRESGPALVKPTQTLTLTCTFSGFSLSNFGEGLSWIRQPPGKGLEWLAHIYWDDDKRYNPSLKSRLTISKDTSRNQVVLTMTNMDPVDTATYYCARRETVFYWYFDVWGQGTTVTVSSASTKGPSVFPLAPSSKSTSGGTAALGCLVKDYFPEPVTVSWNSGALTSGVHTFPAVLQSSGLYSLSSVVTVPSSSLGTQTYICNVNHKPSNTKVDKKVEPKSCEKTHTCPPCPAPEAAGAPSVFLFPPKPKDTLMISRTPEVTCVVVDVSHEDPEVKFNWYVDGVEVHNAKTKPREEQYNSTYRVVSVLTVLHQDWLNGKEYKCKVSNKALPAPIEKTISKAKGQPREPQVYTLPPSREEMTKNQVSLTCEVKGFYPSDIAVEWESNGQPENNYKTTPPVLDSDGSFFLYSKLTVDKSRWQQGNVFSCSVLHEALHSHYTQKSLSLSPGK
light 1: SYVLTQPPSVSVAPGQTARITCGGNNLGSKSVHWYQQKPGQAPVLVVYDDSDRPSWIPERFSGSNSGNTATLTISRGEAGDEADYYCQVWDSSSKHVVFGGGTKLTVLGQPKAAPSVTLFPPSSEELQANKATLVCLISDFYPGAVTVAWKADSSPVKAGVETTTPSKQSNNKYAASSYLSLTPEQWKSHRSYSCQVTHEGSTVEKTVAPTECS
light 2: DIQMTQSPSSLSASVGDRVTITCRASQSVDEEGDSYMNWYQQKPGKAPKLLIYAASNLESGVPSRFSGSGSGTDFTLTISSLQPEDFATYYCQQSNKDPPTFGGGTKVEIKRTVAAPSVFIFPPSDEQLKSGTASVVCLLNNFYPREAKVQWKVDNALQSGNSQESVTEQDSKDSTYSLSSTLTLSKADYEKHKVYACEVTHQGLSSPVTKSFNRGEC
chain 2: EVQLVESGGGLVQPGGSLRLSCAASGFTFSSYAMSWVRQAPGKGLEWVASISSGDTTYYPDSVKGRFTISRDNAKNSLYLQMNSLRAEDTAVYYCARNEGYYFGLTLWGQGTLVTVSSASTKGPSVFPLAPSSKSTSGGTAALGCLVKDYFPEPVTVSWNSGALTSGVHTFPAVLQSSGLYSLSSVVTVPSSSLGTQTYICNVNHKPSNTKVDKKVEPKSC
Turning to B2, the “IC50, IL-4-induced CCL17 secretion by 769-P cells” value in experiment [2] amounted to 0.139 nM. The “fold lower potency than the mAb (TSLP-0855), monocyte TARC bioassay” value in experiment [3] was ~2.5 fold. For the same molecule, in experiment [4], the “IC50, IL-13-induced CCL17 secretion by 769-P cells” value came out at 0.811 nM.

B3: IL413TSLP-0252 (other)
heavy: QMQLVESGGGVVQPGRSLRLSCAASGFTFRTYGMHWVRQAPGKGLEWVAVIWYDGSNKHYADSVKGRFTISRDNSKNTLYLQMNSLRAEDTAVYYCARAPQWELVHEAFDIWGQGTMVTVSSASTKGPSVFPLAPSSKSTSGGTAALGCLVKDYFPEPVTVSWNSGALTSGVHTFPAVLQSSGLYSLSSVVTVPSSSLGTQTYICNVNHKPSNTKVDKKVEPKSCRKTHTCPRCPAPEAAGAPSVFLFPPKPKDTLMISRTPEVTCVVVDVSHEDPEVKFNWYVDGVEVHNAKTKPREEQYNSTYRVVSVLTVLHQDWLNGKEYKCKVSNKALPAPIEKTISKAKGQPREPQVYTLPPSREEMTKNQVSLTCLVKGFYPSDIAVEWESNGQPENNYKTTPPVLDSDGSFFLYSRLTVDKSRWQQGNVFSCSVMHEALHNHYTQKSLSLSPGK
chain 1: DIQMTQSPSSLSASVGDRVTITCKASESVDHFGWSLVHWYQQKPGKAPKLLIYRASNLESGVPSRFSGSGSGTDFTLTISSLQPEDFATYYCQQSNEDPWTFGGGTKVEIKRTVAAPSVFIFPPSDEQLKSGTASVVCLLNNFYPREAKVQWKVDNALQSGNSQESVTEQDSKDSTYSLSSTLTLSKADYEKHKVYACEVTHQGLSSPVTKSFNRGECGGGGSEVTLRESGPALVKPTQTLTLTCTFSGFSLSNFGEGLSWIRQPPGKGLEWLAHIYWDDDKRYNPSLKSRLTISKDTSRNQVVLTMTNMDPVDTATYYCARRETVFYWYFDVWGQGTTVTVSSASTKGPSVFPLAPSSKSTSGGTAALGCLVKDYFPEPVTVSWNSGALTSGVHTFPAVLQSSGLYSLSSVVTVPSSSLGTQTYICNVNHKPSNTKVDKKVEPKSCEKTHTCPECPAPEAAGAPSVFLFPPKPKDTLMISRTPEVTCVVVDVSHEDPEVKFNWYVDGVEVHNAKTKPREEQYNSTYRVVSVLTVLHQDWLNGKEYKCKVSNKALPAPIEKTISKAKGQPREPQVYTLPPSREEMTKNQVSLTCEVKGFYPSDIAVEWESNGQPENNYKTTPPVLDSDGSFFLYSKLTVDKSRWQQGNVFSCSVMHEALHNHYTQKSLSLSPGK
light 1: SYVLTQPPSVSVAPGQTARITCGGNNLGSKSVHWYQQKPGQAPVLVVYDDSDRPSWIPERFSGSNSGNTATLTISRGEAGDEADYYCQVWDSSSDHVVFGGGTKLTVLGQPKAAPSVTLFPPSSEELQANKATLVCLISDFYPGAVTVAWKADSSPVKAGVETTTPSKQSNNKYAASSYLSLTPEQWKSHRSYSCQVTHEGSTVEKTVAPTECS
light 2: DIQMTQSPSSLSASVGDRVTITCKASQSVDEDGDSYMNWYQQKPGKAPKLLIYAASNLESGVPSRFSGSGSGTDFTLTISSLQPEDFATYYCQQSNEDPPTFGGGTKVEIKRTVAAPSVFIFPPSDEQLKSGTASVVCLLNNFYPREAKVQWKVDNALQSGNSQESVTEQDSKDSTYSLSSTLTLSKADYEKHKVYACEVTHQGLSSPVTKSFNRGEC
chain 2: EVQLVESGGGLVQPGGSLRLSCAASGFTFSSYAMSWVRQAPGKGLEWVASISSGDTTYYPDSVKGRFTISRDNAKNSLYLQMNSLRAEDTAVYYCARNEGYYFGLTLWGQGTLVTVSSASTKGPSVFPLAPSSKSTSGGTAALGCLVKDYFPEPVTVSWNSGALTSGVHTFPAVLQSSGLYSLSSVVTVPSSSLGTQTYICNVNHKPSNTKVDKKVEPKSC
For the molecule B3, the “a-hIL-4 IC50 [pM]” value in experiment [5] is 3.65 pM. Further, the “a-hIL-13 IC50 [pM]” value in experiment [6] worked out at 11.2 pM.

B4: IL413TSLP-1037 (trispecific antibody)
heavy: not shown
chain 1: DIQMTQSPSSLSASVGDRVTITCKASESVDHFGWSLVHWYQQKPGKAPKLLIYRASNLESGVPSRFSGSGSGTDFTLTISSLQPEDFATYYCQQSNEDPWTFGGGTKVEIKRTVAAPSVFIFPPSDEQLKSGTASVVCLLNNFYPREAKVQWKVDNALQSGNSQESVTEQDSKDSTYSLSSTLTLSKADYEKHKVYACEVTHQGLSSPVTKSFNRGECGGGGSEVTLRESGPALVKPTQTLTLTCTFSGFSLSNFGEGLSWIRQPPGKGLEWLAHIYWDDDKRYNPSLKSRLTISKDTSRNQVVLTMTNMDPVDTATYYCARRETVFYWYFDVWGQGTTVTVSSASTKGPSVFPLAPSSKSTSGGTAALGCLVKDYFPEPVTVSWNSGALTSGVHTFPAVLQSSGLYSLSSVVTVPSSSLGTQTYICNVNHKPSNTKVDKKVEPKSCEKTHTCPPCPAPEAAGAPSVFLFPPKPKDTLMISRTPEVTCVVVDVSHEDPEVKFNWYVDGVEVHNAKTKPREEQYNSTYRVVSVLTVLHQDWLNGKEYKCKVSNKALPAPIEKTISKAKGQPREPQVYTLPPSREEMTKNQVSLTCEVKGFYPSDIAVEWESNGQPENNYKTTPPVLDSDGSFFLYSKLTVDKSRWQQGNVFSCSVLHEALHSHYTQKSLSLSPGK
light 1: SYVLTQPPSVSVAPGQTARITCGGNNLGSKSVHWYQQKPGQAPVLVVYDDKDRPSWIPERFSGSNSGNTATLTISRGEAGDEADYYCQVWDKSSDHVVFGGGTKLTVLGQPKAAPSVTLFPPSSEELQANKATLVCLISDFYPGAVTVAWKADSSPVKAGVETTTPSKQSNNKYAASSYLSLTPEQWKSHRSYSCQVTHEGSTVEKTVAPTECS
light 2: DIQMTQSPSSLSASVGDRVTITCRASQSVDEEGDSYMNWYQQKPGKAPKLLIYAASNLESGVPSRFSGSGSGTDFTLTISSLQPEDFATYYCQQSNKDPPTFGGGTKVEIKRTVAAPSVFIFPPSDEQLKSGTASVVCLLNNFYPREAKVQWKVDNALQSGNSQESVTEQDSKDSTYSLSSTLTLSKADYEKHKVYACEVTHQGLSSPVTKSFNRGEC
chain 2: EVQLVESGGGLVQPGGSLRLSCAASGFTFSSYAMSWVRQAPGKGLEWVASISSGDTTYYPDSVKGRFTISRDNAKNSLYLQMNSLRAEDTAVYYCARNEGYYFGLTLWGQGTLVTVSSASTKGPSVFPLAPSSKSTSGGTAALGCLVKDYFPEPVTVSWNSGALTSGVHTFPAVLQSSGLYSLSSVVTVPSSSLGTQTYICNVNHKPSNTKVDKKVEPKSC
Regarding B4, the “IC50, IL-4-induced CCL17 secretion by 769-P cells” value in experiment [2] was determined as 0.179 nM. Besides, in experiment [3], the “fold lower potency than the mAb (TSLP-0871), monocyte TARC bioassay” value is ~2.5 fold. In addition, in experiment [4], the “IC50, IL-13-induced CCL17 secretion by 769-P cells” value was found to be 0.593 nM.

B5: IL413TSLP-0251 (other)
heavy: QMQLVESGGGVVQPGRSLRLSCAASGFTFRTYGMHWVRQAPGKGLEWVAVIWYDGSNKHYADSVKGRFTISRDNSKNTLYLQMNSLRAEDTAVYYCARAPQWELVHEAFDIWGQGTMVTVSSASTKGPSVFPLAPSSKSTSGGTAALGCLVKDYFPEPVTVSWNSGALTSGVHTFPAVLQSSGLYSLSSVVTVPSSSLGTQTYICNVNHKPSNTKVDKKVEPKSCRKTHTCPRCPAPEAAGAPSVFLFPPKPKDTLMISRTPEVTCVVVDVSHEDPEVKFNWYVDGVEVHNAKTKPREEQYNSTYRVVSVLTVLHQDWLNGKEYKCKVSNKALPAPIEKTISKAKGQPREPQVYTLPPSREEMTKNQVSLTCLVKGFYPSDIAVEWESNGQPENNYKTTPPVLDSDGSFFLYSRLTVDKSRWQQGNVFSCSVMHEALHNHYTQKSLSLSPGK
chain 1: EVQLVESGGGLVQPGGSLRLSCAASGFTFSSYAMSWVRQAPGKGLEWVASISSGDTTYYPDSVKGRFTISRDNAKNSLYLQMNSLRAEDTAVYYCARNEGYYFGLTLWGQGTLVTVSSRTVAAPSVFIFPPSDEQLKSGTASVVCLLNNFYPREAKVQWKVDNALQSGNSQESVTEQDSKDSTYSLSSTLTLSKADYEKHKVYACEVTHQGLSSPVTKSFNRGECGGGGSEVTLRESGPALVKPTQTLTLTCTFSGFSLSNFGEGLSWIRQPPGKGLEWLAHIYWDDDKRYNPSLKSRLTISKDTSRNQVVLTMTNMDPVDTATYYCARRETVFYWYFDVWGQGTTVTVSSASTKGPSVFPLAPSSKSTSGGTAALGCLVKDYFPEPVTVSWNSGALTSGVHTFPAVLQSSGLYSLSSVVTVPSSSLGTQTYICNVNHKPSNTKVDKKVEPKSCEKTHTCPECPAPEAAGAPSVFLFPPKPKDTLMISRTPEVTCVVVDVSHEDPEVKFNWYVDGVEVHNAKTKPREEQYNSTYRVVSVLTVLHQDWLNGKEYKCKVSNKALPAPIEKTISKAKGQPREPQVYTLPPSREEMTKNQVSLTCEVKGFYPSDIAVEWESNGQPENNYKTTPPVLDSDGSFFLYSKLTVDKSRWQQGNVFSCSVMHEALHNHYTQKSLSLSPGK
light 1: SYVLTQPPSVSVAPGQTARITCGGNNLGSKSVHWYQQKPGQAPVLVVYDDSDRPSWIPERFSGSNSGNTATLTISRGEAGDEADYYCQVWDSSSDHVVFGGGTKLTVLGQPKAAPSVTLFPPSSEELQANKATLVCLISDFYPGAVTVAWKADSSPVKAGVETTTPSKQSNNKYAASSYLSLTPEQWKSHRSYSCQVTHEGSTVEKTVAPTECS
light 2: DIQMTQSPSSLSASVGDRVTITCKASQSVDEDGDSYMNWYQQKPGKAPKLLIYAASNLESGVPSRFSGSGSGTDFTLTISSLQPEDFATYYCQQSNEDPPTFGGGTKVEIKRTVAAPSVFIFPPSDEQLKSGTASVVCLLNNFYPREAKVQWKVDNALQSGNSQESVTEQDSKDSTYSLSSTLTLSKADYEKHKVYACEVTHQGLSSPVTKSFNRGEC
chain 2: DIQMTQSPSSLSASVGDRVTITCKASESVDHFGWSLVHWYQQKPGKAPKLLIYRASNLESGVPSRFSGSGSGTDFTLTISSLQPEDFATYYCQQSNEDPWTFGGGTKVEIKASTKGPSVFPLAPSSKSTSGGTAALGCLVKDYFPEPVTVSWNSGALTSGVHTFPAVLQSSGLYSLSSVVTVPSSSLGTQTYICNVNHKPSNTKVDKKVEPKSC
Turning to B5, in experiment [5], the “a-hIL-4 IC50 [pM]” value was 6.11 pM. Also, the “a-hIL-13 IC50 [pM]” value in experiment [6] came out at 13.7 pM.
